Test results: the Immune Epitope Database (IEDB)

Tests used:
HLA-A*01:01 = assay: IEDB peptide-MHC binding, purified MHC/direct/fluorescence; filed as Kd, often an IC50 or EC50 that approximates it; ≥ and ≤ were set here for values at or beyond the usual limits of such assays
HLA-A*02:01 = assay: as above
HLA-A*02:03 = assay: as above; details: source organism: Influenza A virus (A/Taiwan/2/2006(H1N1))
HLA-A*02:11 = assay: as above; details: source organism: Influenza A virus (A/Taiwan/2/2006(H1N1))
HLA-A*02:12 = assay: as above; details: source organism: Influenza A virus (A/Taiwan/2/2006(H1N1))
HLA-A*02:19 = assay: as above; details: source organism: Influenza A virus (A/Taiwan/2/2006(H1N1))
HLA-A*03:01 = assay: as above
HLA-A*11:01 = assay: as above
HLA-A*23:01 = assay: as above; details: source organism: Influenza A virus (A/Hong Kong/213/2003(H5N1))
HLA-A*24:02 [1] = assay: as above; details: source organism: Influenza A virus (A/Hong Kong/213/2003(H5N1))
HLA-A*24:03 = assay: as above; details: source organism: Influenza A virus (A/Hong Kong/213/2003(H5N1))
HLA-A*26:02 [2] = assay: as above; details: source organism: Influenza A virus (A/Taiwan/2/2006(H1N1))
HLA-A*26:03 [3] = assay: as above; details: source organism: Influenza A virus (A/Taiwan/2/2006(H1N1))
HLA-A*31:01 = assay: as above
HLA-B*07:02 = assay: as above
HLA-B*08:01 = assay: as above
HLA-B*08:02 = assay: as above
HLA-B*15:01 [4] = assay: as above
HLA-B*15:09 = assay: as above; details: source organism: Influenza A virus (A/Taiwan/2/2006(H1N1))
HLA-B*15:17 [5] = assay: as above; details: source organism: Influenza A virus (A/Hong Kong/213/2003(H5N1))
HLA-B*27:05 = assay: as above
HLA-B*57:01 = assay: as above
HLA-B*58:01 = assay: as above
HLA-A*02:06 = assay: IEDB peptide-MHC binding, purified MHC/competitive/fluorescence; filed as Kd, often an IC50 or EC50 that approximates it; ≥ and ≤ were set here for values at or beyond the usual limits of such assays; details: source organism: Influenza A virus (A/X-31(H3N2))
HLA-A*68:02 [6] = assay: as above; details: source organism: Influenza A virus (A/X-31(H3N2))
HLA-B*18:01 [7] = assay: as above
HLA-B*39:01 [8] = assay: as above; details: source organism: Influenza A virus (A/X-31(H3N2))
HLA-A*24:02 [9] = assay: as above
HLA-A*26:01 [10] = assay: IEDB peptide-MHC binding, purified MHC/direct/fluorescence; filed as Kd, often an IC50 or EC50 that approximates it; ≥ and ≤ were set here for values at or beyond the usual limits of such assays; details: source organism: Bacillus anthracis str. Sterne
HLA-B*18:01 [11] = assay: as above; details: source organism: Bacillus anthracis str. Sterne
HLA-B*27:03 = assay: as above; details: source organism: Bacillus anthracis str. Sterne
HLA-B*39:01 [12] = assay: as above; details: source organism: Bacillus anthracis str. Sterne
HLA-B*46:01 = assay: as above; details: source organism: Bacillus anthracis str. Sterne
HLA-A*32:15 = assay: IEDB peptide-MHC binding, purified MHC/competitive/fluorescence; filed as Kd, often an IC50 or EC50 that approximates it; ≥ and ≤ were set here for values at or beyond the usual limits of such assays; details: source organism: Bacillus anthracis str. A0488
HLA-B*15:42 = assay: as above; details: source organism: Bacillus anthracis str. A0488
HLA-B*45:06 = assay: as above; details: source organism: Bacillus anthracis str. A0488
HLA-B*83:01 = assay: as above; details: source organism: Bacillus anthracis str. A0488
HLA-C*14:02 = assay: as above; details: source organism: Bacillus anthracis str. A0488
HLA-A*68:02 [13] = assay: IEDB peptide-MHC binding, purified MHC/direct/fluorescence; filed as Kd, often an IC50 or EC50 that approximates it; ≥ and ≤ were set here for values at or beyond the usual limits of such assays; details: source organism: Vibrio parahaemolyticus
HLA-B*08:03 = assay: as above; details: source organism: Vibrio parahaemolyticus RIMD 2210633
HLA-B*40:01 = assay: as above; details: source organism: Vibrio parahaemolyticus
HLA-B*48:01 = assay: as above; details: source organism: Vibrio parahaemolyticus
HLA-A*26:01 [14] = assay: IEDB peptide-MHC binding, purified MHC/competitive/fluorescence; filed as Kd, often an IC50 or EC50 that approximates it; ≥ and ≤ were set here for values at or beyond the usual limits of such assays; details: source organism: Vibrio parahaemolyticus RIMD 2210633
HLA-A*26:02 [15] = assay: as above; details: source organism: Vibrio parahaemolyticus RIMD 2210633
HLA-A*26:03 [16] = assay: as above; details: source organism: Vibrio parahaemolyticus RIMD 2210633
HLA-B*15:01 [17] = assay: as above; details: source organism: Vibrio parahaemolyticus RIMD 2210633
HLA-B*15:17 [18] = assay: as above; details: source organism: Vibrio parahaemolyticus RIMD 2210633
HLA-B*35:01 = assay: as above; details: source organism: Vibrio parahaemolyticus RIMD 2210633
HLA-A*24:02 [19] = assay: IEDB peptide-MHC binding, purified MHC/competitive/fluorescence; ≥ and ≤ were set here for values at or beyond the usual limits of such assays; details: source organism: West Nile virus
[20] = source organism: Influenza A virus (A/Hong Kong/213/2003(H5N1))
[21] = source organism: Influenza A virus (A/Taiwan/2/2006(H1N1))
[22] = source organism: Influenza A virus (A/X-31(H3N2))
[23] = source organism: Bacillus anthracis str. Sterne
[24] = source organism: Vibrio parahaemolyticus
[25] = source organism: Vibrio parahaemolyticus RIMD 2210633

CFMYSDFHF was tested, and the Kd (HLA-A*01:01; [20]) was ≥ 20000 nM, the Kd (HLA-A*02:01; [20]) was 141 nM and the Kd (HLA-A*02:03) was 307 nM. The Kd (HLA-A*02:11) was 126 nM, the Kd (HLA-A*02:12) was 243 nM and the Kd (HLA-A*02:19) was 268 nM. The Kd (HLA-A*03:01; [20]) was ≥ 20000 nM, the Kd (HLA-A*11:01; [20]) was ≥ 20000 nM and the Kd (HLA-A*23:01) was ≤ 1 nM. The Kd (HLA-A*24:02 [1]) was 21 nM, the Kd (HLA-A*24:03) was 7.5 nM and the Kd (HLA-A*26:02 [2]) was ≥ 20000 nM. For the same sequence, the Kd (HLA-A*26:03 [3]) was ≥ 20000 nM, the Kd (HLA-A*31:01; [20]) was ≥ 20000 nM and the Kd (HLA-B*07:02; [20]) was ≥ 20000 nM. For the same sequence, the Kd (HLA-B*08:01; [21]) was ≥ 20000 nM, the Kd (HLA-B*08:02; [21]) was ≥ 20000 nM and the Kd (HLA-B*15:01 [4]; [20]) was ≥ 20000 nM. For the same sequence, the Kd (HLA-B*15:09) was ≥ 20000 nM, the Kd (HLA-B*15:17 [5]) was ≥ 20000 nM and the Kd (HLA-B*27:05; [20]) was ≥ 20000 nM. The Kd (HLA-B*57:01; [20]) was ≥ 20000 nM, the Kd (HLA-B*58:01; [20]) was 74.5 nM and the Kd (HLA-A*02:06) was 49.2 nM. For the same sequence, the Kd (HLA-A*68:02 [6]) was 210 nM, the Kd (HLA-B*18:01 [7]; [22]) was 1990 nM and the Kd (HLA-B*39:01 [8]) was ≥ 20000 nM.

In the case of KTHIHIFSF, the Kd (HLA-A*24:02 [9]; [22]) is reported as 85.5 nM.

For TTYVYTLPV, the Kd (HLA-A*02:01; [23]) was 90 nM, the Kd (HLA-A*26:01 [10]) was ≥ 20000 nM and the Kd (HLA-B*15:01 [4]; [23]) was ≥ 20000 nM. For the same sequence, the Kd (HLA-B*18:01 [11]) was ≥ 20000 nM, the Kd (HLA-B*27:03) was ≥ 20000 nM and the Kd (HLA-B*39:01 [12]) was ≥ 20000 nM. For the same sequence, the Kd (HLA-B*46:01) was ≥ 20000 nM, the Kd (HLA-B*57:01; [23]) was ≥ 20000 nM and the Kd (HLA-A*32:15) was 370 nM. The Kd (HLA-B*15:42) was ≥ 5000 nM, the Kd (HLA-B*45:06) was ≥ 5000 nM and the Kd (HLA-B*83:01) was ≥ 5000 nM. It also gave a Kd (HLA-C*14:02) of 3.5 nM.

ILRPLGIEY was tested, and the Kd (HLA-A*01:01; [24]) was 2020 nM, the Kd (HLA-A*02:01; [24]) was ≥ 20000 nM and the Kd (HLA-A*03:01; [24]) was 116 nM. For the same sequence, the Kd (HLA-A*11:01; [24]) was ≥ 20000 nM, the Kd (HLA-A*31:01; [24]) was ≥ 20000 nM and the Kd (HLA-A*68:02 [13]) was ≥ 20000 nM. The Kd (HLA-B*07:02; [24]) was ≥ 20000 nM, the Kd (HLA-B*08:01; [25]) was ≥ 20000 nM and the Kd (HLA-B*08:02; [25]) was ≥ 20000 nM. For the same sequence, the Kd (HLA-B*08:03) was ≥ 20000 nM, the Kd (HLA-B*27:05; [24]) was ≥ 20000 nM and the Kd (HLA-B*40:01) was ≥ 20000 nM. The Kd (HLA-B*48:01) was ≥ 20000 nM, the Kd (HLA-B*57:01; [24]) was 1530 nM and the Kd (HLA-B*58:01; [24]) was ≥ 20000 nM. The Kd (HLA-A*26:01 [14]) was 478 nM, the Kd (HLA-A*26:02 [15]) was 403 nM and the Kd (HLA-A*26:03 [16]) was ≥ 20000 nM. For the same sequence, the Kd (HLA-B*15:01 [17]) was 282 nM, the Kd (HLA-B*15:17 [18]) was 48.8 nM and the Kd (HLA-B*18:01 [7]; [25]) was 159 nM. For the same sequence, the Kd (HLA-B*35:01) was 226 nM.

With RYLVKTESW the IC50 (HLA-A*24:02 [19]) was 264 nM and the Kd (HLA-A*24:02 [9]; source organism: West Nile virus) was 0.4 nM.
